Data: publication PMC1762330, “‘Fractional Recovery’ Analysis of a Presynaptic Synaptotagmin 1-Anchored Endocytic Protein Complex” (PLoS ONE, 2006)

B1: stonin2 (natural protein, UniProt D4AB66 1-895, looked up)
chain: MTTLDHVIATHQSEWVSFSEEPLFPTPLEGGTEEHFPGLSSSSDRSESSSGENHAVDEGSQDLSHSEQDDSSEKMGLISEAASPPGSPVQPTPDLASAISNWVQFEDDTPWSNTSAPHKETALTLTVPCWTCPSLDSLRRCPLASESSWTTHSEDTSSPSVAPSYTDLQLINAEEQASGRASGTDSTDNSSSLQEDEEVEMETISWWAGSPAMNGHPAVPQVTTARFPSWVTFEDNEVGCPSPTVPSPKKPNAPSAATAGPDVPFNSTGSFKRDRPKSTLMNLSKVQKLDISSLNRPPSVTEAPPWRATNPFLNESLQDIQPSPINPFSAFFEEQERRSQNSSISGTSGKSQRDSLIVIYQDAISFDDSGKSQSHPDAIEKLKQLQIDDPDPVGNAALPDDDPTASVEPDAPSPTSALSQPRDGWPMMLRIPEKKNIMSSRHWGPIYIKLTDSGYLQLYYEQGLEKPFREFKLEICHEVSEPRLQNYDENGRIHSLRIDRVTYKEKKKYQPKPAVAHAAEREQVIKLGTTNYDDFLSFIHAVQDRLMDLPVQSMDLSTVGLNYLEEEITVDIRDEFSGTVSKGDNQILQHHVLTRIHILSFLSGLAECRLGLNDILIKGNEIVSRQDIMPTTTTKWIKLHECRFHGCVDEDVFNSSRVILFNPLDACRFELMRFRTVFAEKTLPFTLRTAASINGAEVEVQSWLRMSPGFSSNRDPLTQVPCENVMVRYPVPSEWVKNFRRESVLGEKSLKAKVNRGASFGSAGASGSEPVMRVTLGTAKYEHAFNSIVWRINRLPDKNSASGHPHCFFCHLELGSDREVPSRFANHVNVEFSMPTTSASKAAVRSISVEDKPDVRKWVNYSAHYSYKVEIEQKKSLKPDFEGEDLENPKECGVQ
notes: stonin 2, endogenous in rat brain synaptosomes; source: endogenous, rat brain synaptosome lysate

How the values were obtained:
Assay in all cases: co-IP; fractional recovery: immunoprecipitate from rat brain synaptosome lysate on beads split in three aliquots, 15 min on ice in RIPA buffer with 150, 650 or 1150 mM total salt; what stayed on the beads found by Western blot and densitometry; FR = recovery at 1150 mM / recovery at 150 mM, normalised to the FR of the IP-protein
[1] = target: stonin2 (rat (endogenous in rat brain synaptosomes)) (UniProt D4AB66)
[2] = target: T1, heavy chain clathrin (rat (endogenous in rat brain …, UniProt P11442 1-1675)); conditions: partners not purified
T1 construct: clathrin heavy chain, endogenous in rat brain synaptosomes; also called H-clathrin; H-Cl; source: endogenous, rat brain synaptosome lysate
T1 sequence (P11442 whole entry): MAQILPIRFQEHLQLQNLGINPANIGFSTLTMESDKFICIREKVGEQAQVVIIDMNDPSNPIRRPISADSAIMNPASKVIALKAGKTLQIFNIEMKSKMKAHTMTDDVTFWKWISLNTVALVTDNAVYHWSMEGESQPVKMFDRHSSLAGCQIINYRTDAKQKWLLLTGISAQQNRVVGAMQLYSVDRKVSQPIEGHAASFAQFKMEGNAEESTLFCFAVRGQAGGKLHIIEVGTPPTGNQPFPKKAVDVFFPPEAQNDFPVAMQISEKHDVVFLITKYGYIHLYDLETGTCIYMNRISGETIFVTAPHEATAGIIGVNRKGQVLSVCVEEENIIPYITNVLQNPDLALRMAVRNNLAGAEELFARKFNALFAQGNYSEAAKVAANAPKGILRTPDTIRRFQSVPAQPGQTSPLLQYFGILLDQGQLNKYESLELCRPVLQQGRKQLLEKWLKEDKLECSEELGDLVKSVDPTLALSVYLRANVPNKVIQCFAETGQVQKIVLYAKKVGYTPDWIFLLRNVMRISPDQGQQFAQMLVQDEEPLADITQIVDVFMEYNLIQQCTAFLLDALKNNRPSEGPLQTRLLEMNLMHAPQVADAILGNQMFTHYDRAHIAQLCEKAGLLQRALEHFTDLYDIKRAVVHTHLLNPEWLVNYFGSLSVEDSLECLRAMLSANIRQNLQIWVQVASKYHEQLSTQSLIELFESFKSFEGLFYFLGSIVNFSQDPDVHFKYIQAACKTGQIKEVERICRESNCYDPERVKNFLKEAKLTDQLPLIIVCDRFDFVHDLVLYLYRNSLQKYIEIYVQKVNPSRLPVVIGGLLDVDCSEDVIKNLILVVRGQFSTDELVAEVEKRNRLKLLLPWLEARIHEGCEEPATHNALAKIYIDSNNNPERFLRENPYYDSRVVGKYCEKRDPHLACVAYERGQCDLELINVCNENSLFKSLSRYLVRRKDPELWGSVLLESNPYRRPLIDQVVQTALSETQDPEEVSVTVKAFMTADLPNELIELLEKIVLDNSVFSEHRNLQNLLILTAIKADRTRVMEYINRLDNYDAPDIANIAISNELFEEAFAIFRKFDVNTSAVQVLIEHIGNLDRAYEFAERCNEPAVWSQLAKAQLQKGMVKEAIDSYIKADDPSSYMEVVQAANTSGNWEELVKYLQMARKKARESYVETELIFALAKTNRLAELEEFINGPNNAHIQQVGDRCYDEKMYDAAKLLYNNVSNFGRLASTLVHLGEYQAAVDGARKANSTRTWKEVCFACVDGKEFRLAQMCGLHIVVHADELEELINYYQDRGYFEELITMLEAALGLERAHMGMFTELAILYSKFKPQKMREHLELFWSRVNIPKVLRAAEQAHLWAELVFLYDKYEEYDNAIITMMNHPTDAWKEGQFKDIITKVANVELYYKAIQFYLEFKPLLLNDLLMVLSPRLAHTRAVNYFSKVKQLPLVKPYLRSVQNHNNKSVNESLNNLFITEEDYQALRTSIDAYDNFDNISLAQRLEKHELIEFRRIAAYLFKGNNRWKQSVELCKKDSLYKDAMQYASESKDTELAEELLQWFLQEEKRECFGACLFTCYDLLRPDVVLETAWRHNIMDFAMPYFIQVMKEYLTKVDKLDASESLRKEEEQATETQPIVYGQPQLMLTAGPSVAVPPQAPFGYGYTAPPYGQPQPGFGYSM

[3] = target: T2, AP180 (rat (endogenous in rat brain …, UniProt Q05140 1-915)); conditions: partners not purified
T2 construct: AP180 (clathrin coat assembly protein), endogenous in rat brain synaptosomes; source: endogenous, rat brain synaptosome lysate
T2 sequence (looked up): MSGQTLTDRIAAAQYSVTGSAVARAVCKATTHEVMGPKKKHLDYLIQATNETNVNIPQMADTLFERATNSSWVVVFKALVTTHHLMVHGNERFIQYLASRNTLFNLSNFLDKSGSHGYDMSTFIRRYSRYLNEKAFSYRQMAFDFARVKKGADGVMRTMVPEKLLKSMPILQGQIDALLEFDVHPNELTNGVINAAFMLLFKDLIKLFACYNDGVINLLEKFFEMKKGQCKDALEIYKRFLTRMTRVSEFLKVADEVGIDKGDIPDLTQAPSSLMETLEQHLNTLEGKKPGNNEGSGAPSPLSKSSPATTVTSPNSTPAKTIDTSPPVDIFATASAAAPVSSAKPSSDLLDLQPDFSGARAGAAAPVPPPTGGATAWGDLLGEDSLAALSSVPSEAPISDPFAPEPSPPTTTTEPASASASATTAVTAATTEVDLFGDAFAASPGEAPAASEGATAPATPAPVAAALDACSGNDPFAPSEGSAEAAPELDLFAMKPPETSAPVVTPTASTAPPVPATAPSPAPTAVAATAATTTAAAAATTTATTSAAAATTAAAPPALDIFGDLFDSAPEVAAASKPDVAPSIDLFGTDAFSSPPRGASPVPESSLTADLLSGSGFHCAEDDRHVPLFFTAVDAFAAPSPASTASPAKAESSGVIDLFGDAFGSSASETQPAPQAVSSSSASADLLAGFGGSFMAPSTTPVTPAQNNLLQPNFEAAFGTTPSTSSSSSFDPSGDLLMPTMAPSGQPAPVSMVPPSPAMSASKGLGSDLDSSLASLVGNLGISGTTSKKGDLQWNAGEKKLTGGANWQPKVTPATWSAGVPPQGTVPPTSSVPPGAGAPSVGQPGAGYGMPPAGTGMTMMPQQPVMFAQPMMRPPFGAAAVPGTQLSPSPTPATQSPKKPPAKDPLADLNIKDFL

[4] = target: B1; conditions: partners not purified

Molecule | fractional recovery (FR; recovery at 1150 mM salt / recovery at 150 mM salt) [1] | fractional recovery (FR; recovery at 1150 mM salt / recovery at 150 mM salt) [4] | other results
light chain clathrin (from UniProt P08081 1-248) (natural protein) | 0.84 | – | –
long-variant intersectin (natural protein) | 1 | – | –
B1 | – | – | fractional recovery (FR; recovery at 1150 mM salt / recovery at 150 mM salt) [2]: 0.78; fractional recovery (FR; recovery at 1150 mM salt / recovery at 150 mM salt) [3]: 1 ± 0.17
short-variant intersectin (natural protein, UniProt Q9WVE9-1 1-1217, looked up, intersectin (intersectin 1 by the antibody's name Intersectin/ESE-1), short variant, told from the long variant by the size of its band; endogenous in rat brain synaptosomes; they are told apart only as bands on the blot; not checked; also called S-intersectin; S-Int; source: endogenous, rat brain synaptosome lysate) MAQFPTPFGGSLDIWAITVEERAKHDQQFQSLKPISGFITGDQARNFFFQSGLPQPVLAQIWALADMNKDGRMDQVEFSIAMKLIKLKLQGYQLPPALPPVMKQQPAAISSAPAFGIGGMAGMPPLTAVAPVPMGSIPVVGMSPPLVSSVPQAAVPPLANGAPPVIQPLPAFAHPAATLPKSSSFSRSGPGSQLNTKLQKAQSFDVASAPAAAEWAVPQSSRLKYRQLFNSHDKTMSGHLTGPQARTILMQSSLPQAQLASIWNLSDIDQDGKLTAEEFILAMHLIDVAMSGQPLPPVLPPEYIPPSFRRVRSGSGMSVISSSSADQRLPEEPSSEDEQQVEKKLPVTFEDKKRENFERGNLELEKRRQALLEQQRKEQERLAQLERAEQERKERERQEQERKRQLELEKQLEKQRELERQREEERRKEIERREAAKRELERQRQLEWERNRRQELLTQRNKDQEGIVVLKARRKTLEFELEALNDKKHQLEGKLQDIRCRLATQRQEIESTNKSRELRIAEITHLQQQLQESQQMLGRLIPEKQILSDQLKQVQQNSLHRDSLLTLKRALEAKELARQQLREQLDEVEKETRSKLQEIDVFNNQLKELREIHSKQQLQKQRSIEAERLKQKEQERKSLELEKQKEEGQRRVQERDKQWQEHVQQEEQQRPRKPHEEDKLKREDSVKKKEAEERAKPEVQDKQSRLFHPHQEPAKPAQAPWPTTEKGPLTISAQESAKVVYYRALYPFESRSHDEITIQPGDIVMVKGEWVDESQTGEPGWLGGELKGKTGWFPANYAEKIPENEIPTPAKPVTDLTSAPAPKLALRETPAPLPVTSSEPSTTPNNWADFSSTWPSSTNEKPETDNWDTWAAQPSLTVPSAGQLRQRSAFTPATATGSSPSPVLGQGEKVEGLQAQALYPWRAKKDNHLNFNKSDVITVLEQQDMWWFGEVQGQKGWFPKSYVKLISGPVRKSTSIDTGPTEAPSSLKRVASPAAKPAIPGEEFVAMYTYESSEHGDLTFQQGDVIVVTKKDGDWWTGTVGETSGVFPSNYVRLKDSEGSGTAGKTGSLGKKPEIAQVIASYTATGPEQLTLAPGQLILIRKKNPGGWWEGELQARGKKRQIGWFPANYVKLLSPGTSKITPTELPKTAVQPAVCQVIGMYDYTAQNDDELAFSKGQIINVLSKEDPDWWKGEVSGQVGLFPSNYVKLTTDMDPSQQ | – | 0.83 | –
synaptotagmin 1 (natural protein, UniProt P21707 1-421, looked up, synaptotagmin 1, endogenous in synaptosomes from brains of 2-10 day old Sprague Dawley rats; also called STG; STG 1; source: endogenous, rat brain synaptosome lysate) MVSASHPEALAAPVTTVATLVPHNATEPASPGEGKEDAFSKLKQKFMNELHKIPLPPWALIAIAIVAVLLVVTCCFCVCKKCLFKKKNKKKGKEKGGKNAINMKDVKDLGKTMKDQALKDDDAETGLTDGEEKEEPKEEEKLGKLQYSLDYDFQNNQLLVGIIQAAELPALDMGGTSDPYVKVFLLPDKKKKFETKVHRKTLNPVFNEQFTFKVPYSELGGKTLVMAVYDFDRFSKHDIIGEFKVPMNTVDFGHVTEEWRDLQSAEKEEQEKLGDICFSLRYVPTAGKLTVVILEAKNLKKMDVGGLSDPYVKIHLMQNGKRLKKKKTTIKKNTLNPYYNESFSFEVPFEQIQKVQVVVTVLDYDKIGKNDAIGKVFVGYNSTGAELRHWSDMLANPRRPIAQWHTLQVEEEVDAMLAVKK | – | 0.98 | –
